Target: the molecule itself
Test: SEC; […] (20 mM HEPES, 150 mM NaCl pH 7.2), room temperature; […]

B1: Hendra virus W protein (W^HeV), wild type (natural protein)
chain: MDKLDLVNDGLDIIDFIQKNQKEIQKTYGRSSIQQPSTKDRTRAWEDFLQSTSGEHEQAEGGMPKNDGGTEGRNVEDLSSVTSSDGTIGQRVSNTRAWAEDPDDIQLDPMVTDVVYHDHGGECTGHGPSSSPERGWSYHMSGTHDGNVRAVPDTKVLPNAPKTTVPEEVREIDLIGLEDKFASAGLNPAAVPFVPKNQSTPTEEPPVIPEYYYGSGRRGDLSKSPPRGNVNLDSIKIYTSDDEDENQLEYEDEFAKSSSEVVIDTTPEDNDSINQEEVVGDPSDQGLEHPFPLGKFPEKEETPDVRRKDSLMQDSCKRGGVPKRLPMLSEEFECSGSDDPIIQELEREGSHPGGSLRLREPPQSSGNSRNQPDRQLKTGDAASPGGVQRPGTPMPKSRIMPIKKGAQTRSLNMLGRKTCLGRRVVQPGMFADYPPTKKARVLLRRMSN
B1: binds.
